In article PMC4733404:

Target: BDBV GP[change] (recombinant GP form that lacks the highly glycosylated mucin-like domains) (Bundibugyo virus (BDBV))
Experiment: negative-stain single-particle electron microscopy

Substance: BDBV GP[change] (recombinant GP form that lacks the highly glycosylated mucin-like domains) (domain or fragment)
- stoichiometry N: 3
